Data from the supplement of paper PMC10724198.
± gives the standard deviation of the averaged measurements.

Test system: Saccharomyces cerevisiae
Experiment: protein stability index of tFT-peptide fusion (C-terminal peptide) (PSI (0-1 scale)); higher = more stable (slower turnover)
Conditions: genetic background: wild type; temperature: 30 C
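Also: PSI is a weighted mean of sequencing reads over stability bins, variants kept only with over 10 reads, mCherry proximal and sfGFP distal, peptide attached via GGGS linker.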

| Sequence | protein stability index |
| --- | --- |
| TPRRPPATPAPC | 0.653 ± 0.025 |
| TPSSPSARHPPP | 0.715 ± 0.036 |
| TPTDPLSLYAFP | 0.69 ± 0.013 |
| TPTSLRLSSLSP | 0.648 ± 0.036 |
| TPVLATAPQGQS | 0.71 ± 0.063 |
| TPWQTREVTRAR | 0.691 ± 0.057 |
| TQGPTAPADPCS | 0.67049 ± 0.00033 |
| TQSEHRTIPKSG | 0.663 ± 0.0089 |
| TQTLLQRTYREG | 0.722 ± 0.09 |
| TRCLPPPVPPSL | 0.729 ± 0.014 |
| TRDVLWHCWVLS | 0.514 ± 0.08 |
| TRGAPHHSSGRG | 0.693 ± 0.033 |
| TRLLAWGVVGLF | 0.633 ± 0.086 |
| TRPHASPPPPPP | 0.695 ± 0.024 |
| TRPIGSPPSPAK | 0.702 ± 0.017 |
| TRRPTPPSRASL | 0.718 ± 0.049 |
| TRSLPPELTPRR | 0.705 ± 0.021 |
| TRSTKIVVEGSG | 0.736 ± 0.085 |
| TRVAYINRGETR | 0.78 ± 0.2 |
| TRVKRQFRRGGI | 0.686 ± 0.011 |
| TRYRQKRMSITT | 0.581 ± 0.014 |
| TSASLFPLGPFR | 0.666 ± 0.02 |
| TSCIVVRGGRNG | 0.6453 ± 0.0041 |
| TSDVGWVPAGSE | 0.656 ± 0.043 |
| TSETLLTLSTLT | 0.669 ± 0.04 |

| Sequence | protein stability index |
| --- | --- |
| TSHMKASANDTL | 0.687 ± 0.11 |
| TSLFVAGRVWRS | 0.703 ± 0.014 |
| TSLGSFLCGMCR | 0.6506 ± 0.0046 |
| TSLYGRDEETKV | 0.599 ± 0.077 |
| TSNRLDVDFPLS | 0.699 ± 0.0087 |
| TSPAPYPRPPPT | 0.723 ± 0.036 |
| TSPRILLPLNAT | 0.694 ± 0.014 |
| TSRKNRVKASVP | 0.739 ± 0.039 |
| TSRSPLVAPNPS | 0.738 ± 0.083 |
| TSSTPNALARIP | 0.71 ± 0.16 |
| TSWLHTCMKCSL | 0.728 ± 0.017 |
| TSYRNNKAKNQS | 0.756 ± 0.01 |
| TTGKEAQYEARK | 0.664 ± 0.071 |
| TTPYVRTSPRKP | 0.654 ± 0.0091 |
| TTQTYAPLTPHR | 0.64 ± 0.097 |
| TTSKQHRPKQMN | 0.708 ± 0.23 |
| TVAVCPKIDYSV | 0.667 ± 0.0085 |
| TVGKGCGGAEGG | 0.6439 ± 0.0029 |
| TVGRILEVSRRG | 0.66 ± 0.025 |
| TVILQRNPKIIV | 0.652 ± 0.058 |
| TVLHLCMMTFLI | 0.576 ± 0.0084 |
| TVLPAPYRSLYR | 0.714 ± 0.1 |
| TVNIIREEKAGG | 0.68 ± 0.031 |
| TVVTIGAHIGPR | 0.78 ± 0.048 |
| TVWCRLKGEGRS | 0.737 ± 0.084 |

| Sequence | protein stability index |
| --- | --- |
| TWARRAHALRCR | 0.493 ± 0.015 |
| TWIRIEQKTEVR | 0.631 ± 0.017 |
| TWQWGAFNRIKG | 0.68 ± 0.13 |
| TWSLLHDTQTWD | 0.78 ± 0.068 |
| TWSSLVSAVRRN | 0.701 ± 0.079 |
| TYACRQEWRESR | 0.731 ± 0.041 |
| TYFIVGGCGFFG | 0.643 ± 0.06 |
| TYRLSHFFKILP | 0.566 ± 0.013 |
| TYSPPSPTPPAR | 0.656 ± 0.055 |
| TYSTLHILLSSS | 0.602 ± 0.014 |
| TYTCRQVSCNAL | 0.681 ± 0.012 |
| VAAFGGGGTNGV | 0.665 ± 0.075 |
| VADGEAGPLFKI | 0.644 ± 0.069 |
| VAFLSSADLLPP | 0.676 ± 0.056 |
| VAGAVGSAQFER | 0.649 ± 0.13 |
| VAGFYCQKWFSI | 0.657 ± 0.08 |
| VAGGGVAMVGSA | 0.619 ± 0.069 |
| VAGLARVSLHGF | 0.6746 ± 0.0052 |
| VAGWGAGREAAY | 0.657 ± 0.026 |
| VALAPLRDVPSG | 0.681 ± 0.043 |
| VALLLGSRFDFT | 0.6627 ± 0.0023 |
| VANRFRSILVRR | 0.599 ± 0.023 |
| VAPPRLSHGAPY | 0.545 ± 0.061 |
| VASKVNLPVWFW | 0.702 ± 0.021 |
| VAVGIEGGGWGV | 0.764 ± 0.032 |

| Sequence | protein stability index |
| --- | --- |
| VAVRGGCGDWGR | 0.689 ± 0.021 |
| VCCAQVCICCLR | 0.58 ± 0.017 |
| VCFSCLFHESCL | 0.726 ± 0.042 |
| VCFSPVARRDVY | 0.771 ± 0.049 |
| VCFVGGGGSCRD | 0.635 ± 0.068 |
| VCGLGGGQWQGV | 0.729 ± 0.028 |
| VCGNRLSATAIT | 0.684 ± 0.084 |
| VCGQRLKDVGVG | 0.499 ± 0.037 |
| VCHYKVSFSCLL | 0.64 ± 0.044 |
| VCIGGGGVVLGL | 0.645 ± 0.04 |
| VCLATPPSTVTP | 0.619 ± 0.065 |
| VCLGRSEETLSS | 0.608 ± 0.15 |
| VCLRRYGVMADV | 0.628 ± 0.015 |
| VCPGMLVYGRGI | 0.744 ± 0.092 |
| VCPILMARHCVE | 0.691 ± 0.057 |
| VCPSPSTPPGLF | 0.695 ± 0.019 |
| VCRSSGSFDLGI | 0.774 ± 0.064 |
| VCSFLSVDASPP | 0.699 ± 0.018 |
| VCTLLWLLSLVS | 0.573 ± 0.017 |
| VDEREKGSKQGK | 0.689 ± 0.031 |
| VDTGMAAGLTFG | 0.685 ± 0.034 |
| VDVHWSVLCPLG | 0.851 ± 0.098 |
| VDVSGVCEFVLG | 0.706 ± 0.1 |
| VDWLCGGLGGVR | 0.742 ± 0.11 |
| VDYARECALIGG | 0.782 ± 0.11 |

| Sequence | protein stability index |
| --- | --- |
| VEARKKTLNTGP | 0.713 ± 0.033 |
| VEAVSLVFLYGV | 0.552 ± 0.012 |
| VEGSRDSLGCMD | 0.679 ± 0.03 |
| VEKQFSVWSFRG | 0.68 ± 0.031 |
| VELALPRGSTVV | 0.6596 ± 0.005 |
| VEMVVEFKFGTS | 0.703 ± 0.18 |
| VFCFRFLSFCPW | 0.542 ± 0.026 |
| VFCPSPGPLAFA | 0.673 ± 0.072 |
| VFCVFACLCIVF | 0.522 ± 0.091 |
| VFFLSYGPFLAM | 0.5963 ± 0.0038 |
| VFGGAGVGGDCG | 0.669 ± 0.012 |
| VFGKGRWDCFLI | 0.727 ± 0.073 |
| VFGLVGWCAGDC | 0.715 ± 0.094 |
| VFGSGLRATGAV | 0.635 ± 0.086 |
| VFKNRWLGGEKV | 0.69 ± 0.012 |
| VFLLCSLPTFWR | 0.662 ± 0.062 |
| VFLLSPLLVPRD | 0.647 ± 0.11 |
| VFLVESFSPPNA | 0.701 ± 0.029 |
| VFPLWLRRPFPF | 0.695 ± 0.041 |
| VFTALALISYMQ | 0.5917 ± 0.0022 |
| VFVGLFCVLGRV | 0.523 ± 0.0079 |
| VFVRVVGDLRWE | 0.578 ± 0.045 |
| VGAGAGGGGWVL | 0.782 ± 0.017 |
| VGAGGLWCGGGY | 0.83 ± 0.031 |
| VGDCVVRGLWLS | 0.639 ± 0.03 |

| Sequence | protein stability index |
| --- | --- |
| VGERGGIGARSG | 0.673 ± 0.021 |
| VGFGTGGAVGVE | 0.687 ± 0.041 |
| VGFPLVSSPLRL | 0.566 ± 0.059 |
| VGGAPLVSACCI | 0.596 ± 0.022 |
| VGGEWGLGVRPR | 0.703 ± 0.014 |
| VGGGGLSGGAER | 0.678 ± 0.0093 |
| VGGGGRRGKVWG | 0.649 ± 0.035 |
| VGGIGGWFCRGR | 0.73 ± 0.13 |
| VGGKSVVRAESS | 0.645 ± 0.013 |
| VGGLGRGTGSGP | 0.683 ± 0.096 |
| VGGTSWGIEKSS | 0.649 ± 0.052 |
| VGGVGEWCLVRL | 0.6746 ± 0.0046 |
| VGGVVGVGSVGV | 0.775 ± 0.14 |
| VGGWGGVGTCVW | 0.711 ± 0.047 |
| VGHGGCCGWGCG | 0.786 ± 0.1 |
| VGKQRISPSSPS | 0.664 ± 0.018 |
| VGKRGQRRVARL | 0.692 ± 0.021 |
| VGLFGLCRVFGM | 0.646 ± 0.023 |
| VGLFMGSPFMET | 0.693 ± 0.0087 |
| VGLFRESLFRRG | 0.714 ± 0.072 |
| VGLSVRFPVANH | 0.673 ± 0.037 |
